This is an account of results in publication doi:10.1101/2020.09.29.319483.

A word on the Ki: it is a dissociation constant, usually derived from enzyme kinetics or from competition with a known ligand. A high value points to lower affinity.

The target of test [1] is human glucagon-like peptide-1 receptor (human) (UniProt P43220).
Test [2] shares this target. The test can be described thus: radioligand binding.

Chain of UniProt P43220 (P43220 24-463): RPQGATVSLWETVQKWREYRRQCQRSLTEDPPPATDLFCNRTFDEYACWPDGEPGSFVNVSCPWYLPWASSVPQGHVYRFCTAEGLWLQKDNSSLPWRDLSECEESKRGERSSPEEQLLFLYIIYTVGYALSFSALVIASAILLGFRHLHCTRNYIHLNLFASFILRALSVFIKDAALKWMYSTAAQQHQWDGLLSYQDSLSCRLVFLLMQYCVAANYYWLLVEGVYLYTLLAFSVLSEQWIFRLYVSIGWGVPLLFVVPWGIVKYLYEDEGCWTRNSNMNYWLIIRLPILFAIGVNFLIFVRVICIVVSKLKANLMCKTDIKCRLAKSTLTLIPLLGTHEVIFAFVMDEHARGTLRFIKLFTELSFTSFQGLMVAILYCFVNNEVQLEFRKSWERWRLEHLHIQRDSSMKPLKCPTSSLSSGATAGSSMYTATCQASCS

For “exenatide (from UniProt P26349 48-87) (peptide)”, the cAMP production, candidate selection (CS) CHO-GLP-1R cell line in test [1] was found to be 0.11 nM. The same substance registered an inhibition constant (Ki) in test [2] of 0.092 nM.
Turning to liraglutide (peptide), in test [2], the Ki worked out at 4.4 nM.
